4 proteins from paper PMC8867573 can be followed below.

Holding throughout (assay): purified protein
Substrate in data set [1]: COc1cccc(OC)c1O
The data set is classed as biochemical, Streptomyces coelicolor. Particulars: pH 8.0, 42 °C, 0.25-15 mM substrate.

Substrate in data set [2]: CCn1c(=NN=c2sc3cc(S(=O)(=O)O)ccc3n2CC)sc2cc(S(=O)(=O)O)ccc21
Particulars: pH 5.0, 42 °C, 0.1-25 mM substrate.

Substrate in data set [3]: COc1cc(-c2cc(OC)c(O)c(OC)c2)cc(OC)c1O
The data set is classed as biochemical, Streptomyces coelicolor. Particulars: pH 8.5, 42 °C, 0.025-2 mM substrate.

What is called Km is the substrate concentration at which the rate is half of its maximum. In general, kcat refers to the maximal rate divided by the concentration of active sites.

B1: ScSLAC (small laccase, SLAC) (Streptomyces coelicolor A3(2); M298L) (protein)
chain: AKGITARTAPAGGEVRHLKMYAEKLADGQMGYGFEKGKASVPGPLIEVNEGDTLHIEFTNTMDVRASLHVHGLDYEISSDGTAMNKSDVEPGGTRTYTWRTHKPGRRDDGTWRPGSAGYWHYHDHVVGTEHGTGGIRNGLYGPVIVRRKGDVLPDATHTIVFNDMTINNRKPHTGPDFEATVGDRVEIVMITHGEYYHTFHMHGHRWADNRTGILTGPDDPSRVIDNKITGPADSFGFQIIAGEGVGAGAWMYHCHVQSHSDMGLVGLFLVKKPDGTIPGYEPHEHGGATAKSGESGEPTGGAAAHEHEH
Consider B1, for which, in the data set “purified protein [1]”, the Km was found to be 1.3 ± 0.09 mM, the kcat is 1.5 s⁻¹ and the kcat/Km entry was “kcat/Km = 1.2 × 10^3 s^–1 M^–1”. In addition, in the data set “purified protein [2]”, the Km was 5.0 ± 0.22 mM and the kcat stood at 9.3 s⁻¹.

B2: ScSLAC (small laccase, SLAC) (Streptomyces coelicolor A3(2); M298F) (protein)
chain: AKGITARTAPAGGEVRHLKMYAEKLADGQMGYGFEKGKASVPGPLIEVNEGDTLHIEFTNTMDVRASLHVHGLDYEISSDGTAMNKSDVEPGGTRTYTWRTHKPGRRDDGTWRPGSAGYWHYHDHVVGTEHGTGGIRNGLYGPVIVRRKGDVLPDATHTIVFNDMTINNRKPHTGPDFEATVGDRVEIVMITHGEYYHTFHMHGHRWADNRTGILTGPDDPSRVIDNKITGPADSFGFQIIAGEGVGAGAWMYHCHVQSHSDMGFVGLFLVKKPDGTIPGYEPHEHGGATAKSGESGEPTGGAAAHEHEH
Regarding B2, the Km in the data set “purified protein [3]” was 0.3 ± 0.05 mM; in the data set “purified protein [1]”, 1.2 ± 0.19 mM; in “purified protein [2]” it was 4.1 ± 0.24 mM. The kcat in the data set “purified protein [3]” stood at 5.4 s⁻¹; in the data set “purified protein [1]”, 0.7 s⁻¹; in the data set “purified protein [2]” it was 3.7 s⁻¹. Also, the kcat/Km result in “purified protein [3]” is reported as “kcat/Km = 1.8 × 10^4 s^–1 M^–1”; in “purified protein [1]”, “kcat/Km = 0.6 × 10^3 s^–1 M^–1”.

B3: ScSLAC (small laccase, SLAC) (Streptomyces coelicolor A3(2)) (protein)
chain: AKGITARTAPAGGEVRHLKMYAEKLADGQMGYGFEKGKASVPGPLIEVNEGDTLHIEFTNTMDVRASLHVHGLDYEISSDGTAMNKSDVEPGGTRTYTWRTHKPGRRDDGTWRPGSAGYWHYHDHVVGTEHGTGGIRNGLYGPVIVRRKGDVLPDATHTIVFNDMTINNRKPHTGPDFEATVGDRVEIVMITHGEYYHTFHMHGHRWADNRTGILTGPDDPSRVIDNKITGPADSFGFQIIAGEGVGAGAWMYHCHVQSHSDMGMVGLFLVKKPDGTIPGYEPHEHGGATAKSGESGEPTGGAAAHEHEH
Consider B3, for which, in the data set “purified protein [3]”, the Km amounted to 0.3 ± 0.05 mM, the kcat entry is reported as “kcat = 11.3 s^–1” and the kcat/Km entry is “kcat/Km = 3.8 × 10^4 s^–1 M^–1”. For the same protein, in “purified protein [2]”, the Km was 7.3 ± 0.26 mM and the kcat was found to be 38.6 s⁻¹.

B4: ScSLAC (small laccase, SLAC) (Streptomyces coelicolor A3(2); M198F/M298F) (protein)
chain: AKGITARTAPAGGEVRHLKMYAEKLADGQMGYGFEKGKASVPGPLIEVNEGDTLHIEFTNTMDVRASLHVHGLDYEISSDGTAMNKSDVEPGGTRTYTWRTHKPGRRDDGTWRPGSAGYWHYHDHVVGTEHGTGGIRNGLYGPVIVRRKGDVLPDATHTIVFNDFTINNRKPHTGPDFEATVGDRVEIVMITHGEYYHTFHMHGHRWADNRTGILTGPDDPSRVIDNKITGPADSFGFQIIAGEGVGAGAWMYHCHVQSHSDMGFVGLFLVKKPDGTIPGYEPHEHGGATAKSGESGEPTGGAAAHEHEH
As to B4, the results for the Km in “purified protein [3]”, in “purified protein [1]” and in the data set “purified protein [2]” were 0.1 ± 0.02 mM, 1.1 ± 0.08 mM and 1.1 ± 0.04 mM, respectively. The values for the kcat in the data set “purified protein [3]”, in the data set “purified protein [1]” and in “purified protein [2]” were 5.6 s⁻¹, 0.8 s⁻¹ and 3.9 s⁻¹, respectively. The kcat/Km entry in “purified protein [3]” is recorded as “kcat/Km = 5.6 × 10^4 s^–1 M^–1”; in the data set “purified protein [1]” it was “kcat/Km = 0.7 × 10^3 s^–1 M^–1”.
